# Measured values as given in publication PMC5431231, “Identification of a nanobody specific to human pulmonary surfactant protein A” (Scientific Reports, 2017).
# Read-outs that look alike come from different tables or passages of the source.
# Assays:
# [1] = biological target: T1, human pulmonary SP-A protein in human lung tissue (Homo sapiens, endogenous lung tissue, UniProt Q8IWL2)
# [2] = biological target: T2, recombinant human SP-A protein (pulmonary surfactant protein A) (Homo sapiens, UniProt Q8IWL2); assay: BLI; ForteBio's Octet System; Nb4 and purified recombinant human SP-A; who was immobilised is not stated; conditions: both partners purified
# T2 construct: human pulmonary surfactant protein A; gene provided by Shanghai YouLong Biotech; About 41 kDa on SDS-PAGE, which would fit a fusion with the carrier of the pET32 vector; also called purified recombinant SP-A; PET32-SPA; source: E. coli BL21 (PET32-SPA), purified
# T2 sequence (Q8IWL2 21-248): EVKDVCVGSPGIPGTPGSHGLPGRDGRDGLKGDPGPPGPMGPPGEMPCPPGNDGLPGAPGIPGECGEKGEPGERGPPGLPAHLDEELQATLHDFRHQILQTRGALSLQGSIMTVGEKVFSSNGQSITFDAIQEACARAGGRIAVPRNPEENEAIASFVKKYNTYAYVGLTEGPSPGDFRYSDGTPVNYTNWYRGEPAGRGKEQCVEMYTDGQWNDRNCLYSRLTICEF
# [3] = biological target: T1, human pulmonary SP-A protein in human …; assay: far-Western, overlay or dot blot; human lung tissue homogenate proteins separated by SDS-PAGE, transferred to a PVDF membrane and probed with Nb4 overnight at 4 °C; detected with anti-His-HRP; conditions: one partner purified
# [4] = biological target: T3, SP-A in human lung epithelial A549 cells (Homo sapiens, endogenous in A549 cells, UniProt Q8IWL2); assay: immunostaining of cells or tissue; fixed A549, L-02 and 293T cells stained with Nb4-FITC; confocal microscopy; conditions: one partner purified
# T3 construct: human pulmonary surfactant protein A, endogenous in A549 cells; source: endogenous, A549 cells, fixed
# T3 sequence (Q8IWL2 21-248): as above
# T1 sequence (Q8IWL2 21-248): as above
Binder,binding result [1],other results
Nb43 (VHH) VHH: QLQLVESGGGLVQSGGSLRLSCAASGFTFNDYRMSWVRQAPGKGLEWVSDINSGGSSTYYADSVKGRFTVSRDNAKNTLYLQMNSLKPEDTAIYYCVALLGRGCSGLVQGAFGPWGQGTQVTVSS,binds,
"Nb4 (anti-human pulmonary SP-A nanobody) (VHH, About 19 kDa on SDS-PAGE; also called Nb4-His; source: E. coli BL21 (pET-26b (+)-VHH), purified) VHH: QLQLVESGGGLVQPGGSLRLSCAASEFTLDYYEIGWFRQAPGKDREGLSCIGYSDRIAYYSESVKGRFTTVRDDATSTVSLYMDMMIPEDTGTYYCAGSVVEPYELLPAAEYDYWGQGTRVTVSS",,Kd [2]: 748 nM; binding result [3]: binds
"Nb4-FITC (VHH, as the VHH chain of m1; Same nanobody as m1, with a FITC label; also called Nb4 labeled with FITC; source: E. coli BL21 (pET-26b (+)-VHH), purified, labeled with FITC) VHH: QLQLVESGGGLVQPGGSLRLSCAASEFTLDYYEIGWFRQAPGKDREGLSCIGYSDRIAYYSESVKGRFTTVRDDATSTVSLYMDMMIPEDTGTYYCAGSVVEPYELLPAAEYDYWGQGTRVTVSS",,binding result [4]: binds
Nb15 (VHH) VHH: QLQLVESGGGLVQPGGSLSVSCAVRGRDLDYYVIGWFRQAPGKEREGVSCINNSDDTTYYSDSVKGRFTISRDHAKNTVYLQMNNLKPEDTALYYCAADFDRLDFTVKAMCVMKFFYYWGQGTQVTVSS,binds,
Nb29 (VHH) VHH: QVKLVESGGGSVQAGGSLRLSCTASGSDYRWMYIARFRQCPGKEREGVAAIYTDDTDDSSPIYATSAKGRFTISQDKDKNAVYLQMNSPKPEDTAMYYCAARAFGGTWSLSSPDDFSAWGQGTQVTVSS,binds,

# More lines, main results first:
binding result [1],Binder,other results
binds,Nb38 (VHH) VHH: QVKLVESGGGSVQAGGSLILSCTASGSDYRWMYIARFRQCPGKEREGVAAIYTDDTDDSSPIYATSAKGRFTISQDKDKNAVYLQMNSPKPEDTAMYYCAARAFGGTWSLSSPDDFSAWGQGTQVTVSS,
binds,Nb11 (VHH) VHH: QLQLVESGGGLVQPGGSLRLSCTASKFHLDSYAVAWFRQTPGKEREAVSFINTSDDVTYFADSVKGRFTISRDNSKNTVYLQMNVLKPEDTSIYVCAAVRSPGPTGPSMQPMWSVPDLYDYWGQGTQVTVSS,
binds,Nb6 (VHH) VHH: QLQLVESGGDLAQPGGSLTLSCTASGTFKIYSMGWYRRPQRELVAEMLNGGDTQYSDSVKGRFTISRTNNTMYLHMNNLKPEDTAVYYCNLQDWYSEPAGDYWGPGTQVTVSS,
binds,Nb17 (VHH) VHH: QLQLVESGGGLVQPGGSLRLACAASGFNLDDYADIGWFRQAPGKERERVLCITISDGTTYYEDSGKGRFSISTDIAKNTVFLQMDSLKAEDTAVYYCAGDPAPFCLYNTYVPRTWGQGTQVTVSS,
